Test results reported in patent US9340596.

Columns and labels:
Test in all cases: cell-based or functional assay
death receptor = molecular target: death receptor
αVβ3 integrin (human) = αVβ3 integrin (human) (UniProt P06756)
αVβ5 integrin (human) = αVβ5 integrin (human) (UniProt P06756)
αVβ5 integrin (human), sequence (P06756 31-1048, chain 1 of 2): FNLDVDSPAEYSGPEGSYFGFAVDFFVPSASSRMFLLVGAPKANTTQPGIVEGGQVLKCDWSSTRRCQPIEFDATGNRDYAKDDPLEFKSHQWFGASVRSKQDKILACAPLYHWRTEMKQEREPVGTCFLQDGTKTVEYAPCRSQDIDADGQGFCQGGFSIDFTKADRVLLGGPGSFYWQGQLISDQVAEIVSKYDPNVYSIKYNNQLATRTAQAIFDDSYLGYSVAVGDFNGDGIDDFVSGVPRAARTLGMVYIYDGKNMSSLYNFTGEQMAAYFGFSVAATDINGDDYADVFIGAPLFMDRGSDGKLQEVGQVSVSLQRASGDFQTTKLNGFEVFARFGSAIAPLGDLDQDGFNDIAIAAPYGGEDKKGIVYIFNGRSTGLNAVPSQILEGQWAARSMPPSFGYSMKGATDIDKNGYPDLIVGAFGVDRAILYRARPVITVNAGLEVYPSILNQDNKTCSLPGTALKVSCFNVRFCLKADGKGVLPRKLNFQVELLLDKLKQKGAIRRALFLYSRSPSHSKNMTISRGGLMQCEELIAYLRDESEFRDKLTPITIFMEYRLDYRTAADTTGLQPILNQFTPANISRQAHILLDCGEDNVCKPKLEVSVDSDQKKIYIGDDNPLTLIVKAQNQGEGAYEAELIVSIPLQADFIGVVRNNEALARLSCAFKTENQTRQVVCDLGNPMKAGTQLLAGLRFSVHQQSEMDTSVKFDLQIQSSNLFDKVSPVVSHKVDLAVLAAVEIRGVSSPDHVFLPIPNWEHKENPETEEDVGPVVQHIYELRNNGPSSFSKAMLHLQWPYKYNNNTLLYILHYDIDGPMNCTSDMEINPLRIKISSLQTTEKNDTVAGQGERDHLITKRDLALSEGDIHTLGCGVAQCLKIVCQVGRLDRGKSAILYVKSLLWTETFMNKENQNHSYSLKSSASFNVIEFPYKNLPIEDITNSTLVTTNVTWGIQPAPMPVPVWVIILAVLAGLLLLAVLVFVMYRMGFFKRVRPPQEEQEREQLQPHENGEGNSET
αVβ5 integrin (human), sequence (P18084 24-799, chain 2 of 2, further chain): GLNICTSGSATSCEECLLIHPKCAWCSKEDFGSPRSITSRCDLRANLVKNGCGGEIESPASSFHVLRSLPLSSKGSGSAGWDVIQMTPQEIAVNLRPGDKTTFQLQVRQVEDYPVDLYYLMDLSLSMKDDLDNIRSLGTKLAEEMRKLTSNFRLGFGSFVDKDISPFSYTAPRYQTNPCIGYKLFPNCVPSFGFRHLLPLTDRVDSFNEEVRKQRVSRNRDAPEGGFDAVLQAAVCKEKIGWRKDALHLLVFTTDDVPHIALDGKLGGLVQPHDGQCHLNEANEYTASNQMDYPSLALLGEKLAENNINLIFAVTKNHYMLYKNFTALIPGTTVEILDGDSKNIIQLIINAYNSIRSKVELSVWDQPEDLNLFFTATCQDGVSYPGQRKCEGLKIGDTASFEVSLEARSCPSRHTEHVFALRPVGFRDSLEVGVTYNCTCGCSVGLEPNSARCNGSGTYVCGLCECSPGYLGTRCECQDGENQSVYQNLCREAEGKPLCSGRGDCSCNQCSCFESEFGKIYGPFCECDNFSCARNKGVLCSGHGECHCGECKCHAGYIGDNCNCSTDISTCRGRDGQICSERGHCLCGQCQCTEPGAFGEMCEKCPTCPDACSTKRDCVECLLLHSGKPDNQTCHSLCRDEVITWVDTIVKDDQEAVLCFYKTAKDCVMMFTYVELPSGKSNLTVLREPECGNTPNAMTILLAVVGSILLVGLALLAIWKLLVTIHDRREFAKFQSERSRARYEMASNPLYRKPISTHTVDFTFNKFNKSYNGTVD

αVβ3 integrin (human), sequence (P06756 31-1048, chain 1 of 2): as the sequence (P06756 31-1048, chain 1 of 2) above
αVβ3 integrin (human), sequence (P05106 27-788, chain 2 of 2, further chain): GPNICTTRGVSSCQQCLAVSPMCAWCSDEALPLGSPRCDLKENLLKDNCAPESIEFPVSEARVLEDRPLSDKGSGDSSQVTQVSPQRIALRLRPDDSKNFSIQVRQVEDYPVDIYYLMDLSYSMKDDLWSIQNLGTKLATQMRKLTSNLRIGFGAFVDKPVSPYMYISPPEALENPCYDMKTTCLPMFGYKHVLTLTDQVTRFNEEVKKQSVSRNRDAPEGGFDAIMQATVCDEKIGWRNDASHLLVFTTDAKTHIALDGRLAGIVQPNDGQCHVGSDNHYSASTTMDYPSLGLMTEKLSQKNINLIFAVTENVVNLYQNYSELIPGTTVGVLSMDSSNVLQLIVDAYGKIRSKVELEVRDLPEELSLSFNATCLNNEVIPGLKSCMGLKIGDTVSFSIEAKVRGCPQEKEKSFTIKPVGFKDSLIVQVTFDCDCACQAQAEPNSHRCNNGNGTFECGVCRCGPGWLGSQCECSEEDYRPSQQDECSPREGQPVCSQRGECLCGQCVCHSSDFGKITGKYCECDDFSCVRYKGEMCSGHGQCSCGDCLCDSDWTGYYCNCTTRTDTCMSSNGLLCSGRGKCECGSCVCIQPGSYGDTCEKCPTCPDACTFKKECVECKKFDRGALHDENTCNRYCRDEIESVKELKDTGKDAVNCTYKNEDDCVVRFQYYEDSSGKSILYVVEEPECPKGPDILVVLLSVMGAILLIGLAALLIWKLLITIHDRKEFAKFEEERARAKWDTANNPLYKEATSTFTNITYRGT

Work on “RGD-L-TRAIL (human TRAIL variant: short peptide …, connecting peptide of five glycines, TRAIL) (from UniProt P50591 114-281)” yielded an apoptosis rate of COLO-205 cells at 2.43 ng/ml (Annexin V-FITC and PI double staining) (death receptor) of 87.5%, a caspase-8 and caspase-3 activity in Jurkat cells after two hours, against the same dose of wild-type TRAIL (death receptor) of 2.5 times and a medial lethal dose on COLO-205 cells (death receptor) of 0.37 ng/mL. It also gave a medial lethal dose on Jurkat cells (death receptor) of 0.41 ng/mL, a medial lethal dose on MDA-MB-231 cells (death receptor) of 1.2 ng/mL and a fold reduction of the medial lethal dose against wild-type TRAIL, COLO-205 cells (αVβ3 integrin (human)) of 9.5 times. For the same substance, the fold reduction of the medial lethal dose against wild-type TRAIL, Jurkat cells (αVβ3 integrin (human)) was 16.3 times, the fold reduction of the medial lethal dose against wild-type TRAIL, MDA-MB-231 cells (αVβ3 integrin (human)) was 1.9 times and the fold reduction of the medial lethal dose against wild-type TRAIL, COLO-205 cells (αVβ5 integrin (human)) was 9.5 times. It also gave a fold reduction of the medial lethal dose against wild-type TRAIL, Jurkat cells (αVβ5 integrin (human)) of 16.3 times and a fold reduction of the medial lethal dose against wild-type TRAIL, MDA-MB-231 cells (αVβ5 integrin (human)) of 1.9 times.
